B1: EMSA_probe-Crz1/CMK2-F/R (DIG-labeled) (dsDNA)
DNA 1: AACGCAGCGCGAAGAGAATAATTGAGGCTTATCTTAGAACCCTGCCCCC
DNA 2: GGGGGCAGGGTTCTAAGATAAGCCTCAATTATTCTCTTCGCGCTGCGTT
B2: EMSA_probe-Crz1/CMK2-F/R (unlabeled competitor) (dsDNA)
DNA 1: B1 DNA 1
DNA 2: B1 DNA 2

Key:
His6-Crz1(N339-S678) [1] = target: T1, His6-Crz1(N339-S678) (Saccharomyces cerevisiae BY4743, UniProt P53968 339-678); assay: EMSA
His6-Crz1(N339-S678) [2] = target: T1, His6-Crz1(N339-S678); assay: competition

T1 sequence (P53968 339-678): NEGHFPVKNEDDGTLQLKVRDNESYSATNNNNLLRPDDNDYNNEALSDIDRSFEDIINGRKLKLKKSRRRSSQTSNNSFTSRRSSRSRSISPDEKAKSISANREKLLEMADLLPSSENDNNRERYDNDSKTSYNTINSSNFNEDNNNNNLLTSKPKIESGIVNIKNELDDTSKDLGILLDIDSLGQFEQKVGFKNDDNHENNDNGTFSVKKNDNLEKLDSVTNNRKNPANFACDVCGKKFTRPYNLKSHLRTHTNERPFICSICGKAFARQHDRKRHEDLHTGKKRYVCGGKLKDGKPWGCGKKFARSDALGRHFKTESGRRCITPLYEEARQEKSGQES

| Binder | binding result (His6-Crz1(N339-S678) [1]) | binding result (His6-Crz1(N339-S678) [2]) |
| --- | --- | --- |
| B1 | binds |  |
| B2 |  | binds |
